Test results published in PMC5080453, “Structural characterization of twisted gastrulation provides insights into opposing functions on the BMP signalling pathway” (Matrix Biology, 2016).

T1: ΔN-chordin (human chordin construct lacking the N-terminal part) (human, UniProt Q9H2X0 129-955)
T1 construct: chordin, human, ΔN-chordin: partially cleaved chordin fragment lacking the N-terminus and containing the C-terminal vWC domains; source: HEK 293-EBNA cells, as previously described [13]
T1 sequence (looked up): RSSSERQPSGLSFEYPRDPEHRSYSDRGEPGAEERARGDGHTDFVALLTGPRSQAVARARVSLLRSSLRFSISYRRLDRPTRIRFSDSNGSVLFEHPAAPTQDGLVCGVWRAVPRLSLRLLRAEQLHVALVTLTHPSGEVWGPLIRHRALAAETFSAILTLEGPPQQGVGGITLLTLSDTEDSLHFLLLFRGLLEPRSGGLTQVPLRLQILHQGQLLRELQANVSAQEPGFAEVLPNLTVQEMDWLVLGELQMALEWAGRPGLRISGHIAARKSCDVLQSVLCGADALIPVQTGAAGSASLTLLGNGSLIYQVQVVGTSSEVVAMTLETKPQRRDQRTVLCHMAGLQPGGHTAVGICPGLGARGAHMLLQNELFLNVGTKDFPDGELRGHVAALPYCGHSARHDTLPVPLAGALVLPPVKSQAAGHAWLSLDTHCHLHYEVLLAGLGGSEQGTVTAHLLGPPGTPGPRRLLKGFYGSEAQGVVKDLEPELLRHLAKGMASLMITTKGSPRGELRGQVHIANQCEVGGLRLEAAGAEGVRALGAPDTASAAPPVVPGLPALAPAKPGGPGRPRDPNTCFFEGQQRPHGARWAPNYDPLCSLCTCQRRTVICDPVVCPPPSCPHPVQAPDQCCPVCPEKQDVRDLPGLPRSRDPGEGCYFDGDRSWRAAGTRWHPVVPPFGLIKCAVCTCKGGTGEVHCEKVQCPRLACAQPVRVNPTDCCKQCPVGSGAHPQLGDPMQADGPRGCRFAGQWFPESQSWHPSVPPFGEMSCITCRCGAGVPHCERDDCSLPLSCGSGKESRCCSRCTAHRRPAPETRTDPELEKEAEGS

B1: chordin vWC2–3 (residues 701–860) (domain or fragment, human, UniProt Q9H2X0 701-860, looked up)
chain: DPNTCFFEGQQRPHGARWAPNYDPLCSLCTCQRRTVICDPVVCPPPSCPHPVQAPDQCCPVCPEKQDVRDLPGLPRSRDPGEGCYFDGDRSWRAAGTRWHPVVPPFGLIKCAVCTCKGGTGEVHCEKVQCPRLACAQPVRVNPTDCCKQCPVGSGAHPQL
notes: chordin, human, vWC2–3, residues 701–860, generated by PCR from full-length human chordin; thrombin cleavage site before the C-terminal His6 tag
B2: human twisted gastrulation (Tsg), native (glycosylated) (natural protein, UniProt Q9GZX9 26-223, looked up)
chain: CNKALCASDVSKCLIQELCQCRPGEGNCSCCKECMLCLGALWDECCDCVGMCNPRNYSDTPPTSKSTVEELHEPIPSLFRALTEGDTQLNWNIVSFPVAEELSHHENLVSFLETVNQPHHQNVSVPSNNVHAPYSSDKEHMCTVVYFDDCMSIHQCKISCESMGASKYRWFHNACCECIGPECIDYGSKTVKCMNCMF
modifications: N-linked glycans (three predicted N-linked glycosylation sites)
notes: twisted gastrulation (Tsg), human, generated by PCR from image clone Q9GZX9; a thrombin cleavage site stands before the C-terminal His6 tag; For MST it was labelled with NT647 (Red-NHS kit); Monomer by MALS, AUC and SAXS; also called native Tsg
B3: chordin vWC1 (residues 50–128) (domain or fragment, human, UniProt Q9H2X0 50-128, looked up)
chain: GCTFGGKVYALDETWHPDLGEPFGVMRCVLCACEAPQWGRRTRGPGRVSCKNIKPECPTPACGQPRQLPGHCCQTCPQE
notes: chordin, human, vWC1, residues 50–128, generated by PCR from full-length human chordin; thrombin cleavage site before the C-terminal His6 tag

How the values were obtained:
Settings in all cases: both partners purified
[1] = target: B2; experiment: SPR; ProteOn XPR36, GLC chip; Tsg immobilised by amine coupling (300 RU for ΔN-chordin and vWC2–3, 800 RU for vWC1-4CHRD and vWC1); chordin constructs injected at increasing concentrations; 25 °C, 10 mM HEPES, 150 mM NaCl, 3 mM EDTA, 0.05% Tween-20, pH 7.4, 50 μl/min; ΔN-chordin fitted to a 1:1 Langmuir model, vWC2–3 by equilibrium analysis; triplicate
[2] = target: T1, ΔN-chordin (human chordin construct …); experiment: as above
[3] = target: B2; experiment: MST; 15 nM NT647-labelled Tsg mixed with serial dilutions of vWC1 from 7 μM; 50 mM Tris, 150 mM NaCl, 10 mM MgCl2, 0.05% Tween-20, pH 7.4; Monolith NT.115Pico, 20% LED, 20% MST power; triplicate

Binder: B1
Kd [1]: 26.4 nM

Binder: B2
Kd [2]: 3.08 nM

Binder: B3
Kd [3]: 322 nM
